± gives the uncertainty stated by the source.

This passage reports amyloid nucleation score results from the supplement of paper PMC12042874.

This data set can be described thus: amyloid nucleation score (Sup35N fusion, yeast selection) (log enrichment); library NNK3; higher = more nucleation; inactive = no reads after selection. In short, it runs like this:
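Yeast lacking psi expressed peptides of 20 random codons fused to Sup35N, received 100 μM copper sulfate for 24 hours, and were then grown for 7 days at 30°C on medium lacking adenine and uracil. Illumina sequencing of input and output plasmid inserts provided the reads. Nucleation scores are DiMSum log enrichments of output over input, centred on the mode of non-aggregating sequences. Any sequence with under 100 input reads was excluded.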

Consider TDAIVFMEHSDVGRSSLDWN, for which the amyloid nucleation score entry is “inactive”.
In the case of YSSARTFSLHCIERLYSGYV it was “inactive”.
VFSDTRCVCRKRSSVFKIVS: the amyloid nucleation score entry is “inactive”.
In the case of LQAYAMGNYRGDKK it was “inactive”.
Next, LNMLKVLFSWIRYDGNQ: “inactive”; REVELSNVYYNDVSACLHKK: -0.378 ± 1.4.
Next, CMGACLAGDTCKWIRQHLSG: “inactive”; YSDWELVSGVQLA: “inactive”.
With SQVLWGTSRGLYYTDRNFTN, the amyloid nucleation score result was “inactive”.
In the case of SKSIMTWWEVLDGGSNLKSV it was “inactive”; in that of TVQNVLCHCMMSNMAYWGHQ, 2.63 ± 0.082.
For CCMLC, the amyloid nucleation score is -0.309 ± 1.
Next, NKFKHESNTNYIPSRQYKVW: “inactive”.
Next, CVQRVREYVGT: “inactive”; YSCVVL: “inactive”; RMRSMRSMF: “inactive”.
In the case of PWDDYTAQIGLYSFPPWLYV it was “inactive”.
On to RAYSSWSLSSCRCNSDWTVG, for which the amyloid nucleation score result is “inactive”.
Next, YPRTSFRFKGCDKEVVSDLL: “inactive”.
In the case of LCLVLWVSK it was “inactive”; in that of LSMSAVL, “inactive”; in that of YKSVYMRF, 0.709 ± 0.18.
As to VMTIGTRV, the amyloid nucleation score entry is “inactive”.
In the case of LEGALRQDSCHKVPKLGQPV it was “inactive”; in that of NRSTWCW, “inactive”.
DKYFVAASWFRWVLVYMGWS: the amyloid nucleation score result is “inactive”.
QFTHTNIFTND: the amyloid nucleation score entry is “inactive”.
In the case of ALSNYVFLEVTLQTWVVIEV it was “inactive”; in that of LYFCKNKYTCWSACVNSGFN, “inactive”.
On to HSVIRRFNIPMELYHMWLIS, for which the amyloid nucleation score result is “inactive”.
In the case of MYREFYLNDQFNRPFPQSMD it was “inactive”; in that of RNEDLSA, -0.096 ± 0.66; in that of SSDIIHGNDVRSLVRRDRSL, “inactive”.
In the case of LVVDYLEFCTFLVDVENIWT it was “inactive”; in that of CSMPFTSSEKLGKCGNDAPF, “inactive”; in that of TITKVNFWEQVRRLLQSGTQ, “inactive”.
In the case of YFRFFTFSNCRDYKDTYPTL it was 0.972 ± 0.23; in that of SICCKVRTSTYVRLCMLVLP, “inactive”.
Take PYSISRLTSYDPFGHVPGTR: the amyloid nucleation score entry is “inactive”.
Next, SNEGE: “inactive”; DGEASTRVSCGDDIFRKTSS: 1.03 ± 0.16.
In the case of SRYLGKGFVSGTCDVGCGLN it was “inactive”.
Next, FSSRDWNYSSRMVKIRNGRF: “inactive”.
Take RFWKTTPNGQIRVSSVMRCM: the amyloid nucleation score entry is “inactive”.
With CCFPVVRKPFG, the amyloid nucleation score entry is “inactive”.
For the substance SCVGNLENTIYNMVVRNCCY, the amyloid nucleation score entry was “inactive”.
In the case of LIWYRNDEWYSFLWMVYCSS it was “inactive”; in that of SRDMCAWWVYSGSSQSNECM, “inactive”; in that of VLLCYNIVKPYNVSC, “inactive”.
In the case of HHTKILSSYISWVYILITNS it was “inactive”.
In the case of YNRFLVVSGMGMSFYGKQYM it was 1.51 ± 0.074; in that of ILFLSLRSYSLNGFSDIMYY, “inactive”; in that of MDAYRNHFMFTIIKFYSCES, “inactive”.
As to SKECILVLAFDGCSGSSRWY, the amyloid nucleation score entry was “inactive”.
Next, VQSTVVQVGDWY: “inactive”.
Regarding LSLISVSLG, the amyloid nucleation score result is “inactive”.
In the case of SYRYFGGSDYRLCGGIWMLA it was “inactive”.
Next, MELYPLLVGNFSIQKKVECN: “inactive”.
Regarding GDSLGGTYYLLRSFFCCRDL, the amyloid nucleation score entry was “inactive”.
In the case of IYNSAFIGFSRLKVCVYALF it was 0.471 ± 0.17; in that of SGMTGCTFRYGSRIQF, “inactive”; in that of FKRTTMCGDYAVYVTPGTSL, “inactive”.
Next, QYICHDNCRCCQRNEKFRRK: “inactive”; CKGNINTYGYLYLDVYFYIM: 1.94 ± 0.073; RSVVRFWFFLINRHVYELSL: “inactive”.
Next, GYESLYRQHLYDSSLCWESR: “inactive”; TIVTIVAFFNMERYGHFRGD: 0.903 ± 0.11; DRSDNRSGYFMINVVYNDGE: 0.724 ± 0.18.
Turning to QFPSSQN, the amyloid nucleation score result was “inactive”.
As for ASTLLHYCLLNSGYEWSGQC, the amyloid nucleation score turned out to be 0.251 ± 0.81.
Take MRKLDPFNSKP: the amyloid nucleation score result is “inactive”.
Regarding STNGLLTSNS, the amyloid nucleation score result was “inactive”.
Next, LVLMCIIARIAVVYKR: “inactive”; KTKGICSSMLVFC: “inactive”.
Next, INNTAPPQTYPR: “inactive”.
In the case of ANSWSMLHVECFYML it was 2.44 ± 0.058.
Take AIPLYWIEFRVRKLSSLFLQ: the amyloid nucleation score result was “inactive”.
As to TYFHIRCVV, the amyloid nucleation score entry was “inactive”.
In the case of GLDHLPMFWYRPLIWPDVPQ it was “inactive”.
In the case of WLWVGIGLRSYELLNEEW it was “inactive”.
In the case of DVFSNMSWYYCNVIWNAYDM it was 0.196 ± 0.52; in that of NMNSISYSQPIFRSRTRRRM, “inactive”.
Regarding EQKGKQFEVSVDSYSTWEVG, the amyloid nucleation score result is “inactive”.
In the case of TITCCVYDN it was 2.13 ± 0.053.
Next, TLASQFSFLVS: “inactive”; VPGLHLSNPTAELDMQI: “inactive”; LRTFKITFRGTVKTRRSLTN: 0.466 ± 0.63.
In the case of LSTFMWNQAVWTPRIFWRCA it was “inactive”; in that of LHTSTTPKTMKRRSQLSNQK, “inactive”.
KGVGHSTLTIIFLLSALRFS yielded an amyloid nucleation score of 1.02 ± 0.14.
The substance LNRDGVISMFFSFCGGTRPR returned an amyloid nucleation score of -0.452 ± 0.93.
In the case of NSCYFFNLHYVYHETANCFI it was 3.2 ± 0.068; in that of HMVSFAERTVSDVGTVNPGQ, “inactive”; in that of TIVNL, “inactive”.
ERNAGLITAFYFYSPFGTMM: the amyloid nucleation score entry is “inactive”.
In the case of CGISSILIAFCCNHYIVQWM it was 1.92 ± 0.054.
In the case of FLMVGKISKMFKQYNLLFH it was “inactive”.
Turning to KLLSMGVSTKRRT, the amyloid nucleation score result is “inactive”.
Next, STIDKCLYINIAIYAIFPDF: 1.31 ± 0.12.
In the case of IFNALCYTWESRFLRTEVVS it was “inactive”; in that of IDRFHYSLTTDT, “inactive”.
Next, YKGYSVCIVLPFG: -0.542 ± 0.98; IERSDSVSWRGVLVGIEMKV: “inactive”; LYFMCTNRQVL: “inactive”.
For IHKLHYIYGGLMSTWLLEDT, the amyloid nucleation score entry was “inactive”.
In the case of RLKNHSGCIILNRCVSRGRI it was “inactive”; in that of GVHDRLTVSRFCLGVNGDGV, “inactive”.
Next, YFYIPGH: “inactive”; KVVMGVGLQRDESGIEGQLG: “inactive”; KTNRFHIDFAIDTPRLSLFL: “inactive”.
Next, TFSDRSFRQWVWQELSFCGS: “inactive”.
As for TDVMVYHPFL, the amyloid nucleation score result was “inactive”.
As for NLWVEGRKAQENMDPDARSR, the amyloid nucleation score entry is “inactive”.
In the case of CVSRICVWPRYETTGFYAST it was “inactive”.
Next, LYGDL: “inactive”.
In the case of QNECLGHQNWLNVVLKVAMM it was “inactive”; in that of GRGTYGSNPYRGLDIYRYDG, “inactive”; in that of PDVNVRGGGQLVV, “inactive”.
For FVDLSSIDYVF, the amyloid nucleation score result was “inactive”.
For TTQILYTFY, the amyloid nucleation score worked out at 1.56 ± 0.12.
In the case of LRRYVARNRRSYFTESLPRA it was -0.123 ± 1.4; in that of CSSSRVWVHKHYGTYRHFIL, “inactive”; in that of RYKRTGIWCFECNRVLVEVF, “inactive”.
Next, RNHIALSLGWIQEDVIGSWN: 0.991 ± 0.13.
Next, GPSPDPNRLP: -0.754 ± 1.3; LAVSGKEHAK: “inactive”.
Turning to NNLMLV, the amyloid nucleation score result was “inactive”.
Next, SPNNTTFSHYRFCLL: “inactive”; ACYFWFNINIEHAR: 1.78 ± 0.11.
In the case of SNGLATLSLSWCNCIKGGSL it was 2.9 ± 0.052.
MSPPCFNRMSYIMLPWFVML: the amyloid nucleation score entry was “inactive”.
